Experimental data as given in patent publication US20210388087A1 (Chugai, published 2021).
Residue numbers refer to the chain shown, from its start.

B1: CE115HA000 H96K (antibody, human IgG1, kappa, L234A L235A, N297A, name in Kabat numbering)
heavy: QVQLVESGGGVVQPGRSLRLSCAASGFTFSNAWMHWVRQAPGKGLEWVAQIKAKSNNYATYYAESVKGRFTISRDDSKNSLYLQMNSLKTEDTAVYYCRYVKYGAYYGVDAWGQGTTVTVSSASTKGPSVFPLAPSSKSTSGGTAALGCLVKDYFPEPVTVSWNSGALTSGVHTFPAVLQSSGLYSLSSVVTVPSSSLGTQTYICNVNHKPSNTKVDKKVEPKSCDKTHTCPPCPAPEAAGGPSVFLFPPKPKDTLMISRTPEVTCVVVDVSHEDPEVKFNWYVDGVEVHNAKTKPREEQYASTYRVVSVLTVLHQDWLNGKEYKCKVSNKALPAPIEKTISKAKGQPREPQVYTLPPSRCELTKNQVSLSCAVKGFYPSDIAVEWESNGQPENNYKTTPPVLDSDGSFFLVSKLTVDKSRWQQGNVFSCSVMHEALHNHYTQKSLSLSPDYKDDDDK
chain: EPKSSDKTHTCPPCPAPELLGGPSVFLFPPKPKDTLMISRTPEVTCVVVDVSHEDPEVKFNWYVDGVEVHNAKTKPREEQYNSTYRVVSVLTVLHQDWLNGKEYKCKVSNKALPAPIEKTISKAKGQPREPQVCTLPPSRDELTKNQVSLWCLVKGFYPSDIAVEWESNGQPENNYKTTPPVLDSDGSFFLYSKLTVDKSRWQQGNVFSCSVMHEALHNRYTQKSLSLSP
light: DIVMTQSPLSLPVTPGEPASISCRSSQSLVHSNRNTYLHWYQQKPGQAPRLLIYKVSNRFSGVPDRFSGSGSGTDFTLKISRVEAEDVGVYYCGQGTQVPYTFGQGTKLEIKRTVAAPSVFIFPPSDEQLKSGTASVVCLLNNFYPREAKVQWKVDNALQSGNSQESVTEQDSKDSTYSLSSTLTLSKADYEKHKVYACEVTHQGLSSPVTKSFNRGEC
notes: one-arm antibody
B2: CE115HA000 H96Y (antibody, human IgG1, kappa, L234A L235A, N297A, name in Kabat numbering)
heavy: B1 heavy with K102Y
chain: B1 chain
light: B1 light
notes: one-arm antibody
B3: CE115HA000 K52H (antibody, human IgG1, kappa, L234A L235A, N297A, name in Kabat numbering)
heavy: B1 heavy with K52H, K102H
chain: B1 chain
light: B1 light
notes: one-arm antibody
B4: CE115HA000 H96S (antibody, human IgG1, kappa, L234A L235A, N297A, name in Kabat numbering)
heavy: B1 heavy with K102S
chain: B1 chain
light: B1 light
notes: one-arm antibody
B5: CE115HA000 I51E (antibody, human IgG1, kappa, L234A L235A, N297A, name in Kabat numbering)
heavy: B1 heavy with I51E, K102H
chain: B1 chain
light: B1 light
notes: one-arm antibody
B6: CE115HA000 K52E (antibody, human IgG1, kappa, L234A L235A, N297A, name in Kabat numbering)
heavy: B1 heavy with K52E, K102H
chain: B1 chain
light: B1 light
notes: one-arm antibody
B7: CE115HA000 K52N (antibody, human IgG1, kappa, L234A L235A, N297A, name in Kabat numbering)
heavy: B1 heavy with K52N, K102H
chain: B1 chain
light: B1 light
notes: one-arm antibody
B8: CE115HA000 K52bR (antibody, human IgG1, kappa, L234A L235A, N297A, name in Kabat numbering)
heavy: B1 heavy with K54R, K102H
chain: B1 chain
light: B1 light
notes: one-arm antibody
B9: CE115HA000 K52bN (antibody, human IgG1, kappa, L234A L235A, N297A, name in Kabat numbering)
heavy: B1 heavy with K54N, K102H
chain: B1 chain
light: B1 light
notes: one-arm antibody
B10: CE115HA000 K64D (antibody, human IgG1, kappa, L234A L235A, N297A, name in Kabat numbering)
heavy: B1 heavy with K67D, K102H
chain: B1 chain
light: B1 light
notes: one-arm antibody
B11: CE115HA000 K43E (antibody, human IgG1, kappa, L234A L235A, N297A, name in Kabat numbering)
heavy: B1 heavy with K43E, K102H
chain: B1 chain
light: B1 light
notes: one-arm antibody
B12: CE115HA000 K64E (antibody, human IgG1, kappa, L234A L235A, N297A, name in Kabat numbering)
heavy: B1 heavy with K67E, K102H
chain: B1 chain
light: B1 light
notes: one-arm antibody
B13: CE115HA000 H96R (antibody, human IgG1, kappa, L234A L235A, N297A, name in Kabat numbering)
heavy: B1 heavy with K102R
chain: B1 chain
light: B1 light
notes: one-arm antibody
B14: CE115HA000 K52I (antibody, human IgG1, kappa, L234A L235A, N297A, name in Kabat numbering)
heavy: B1 heavy with K52I, K102H
chain: B1 chain
light: B1 light
notes: one-arm antibody
B15: CE115HA000 K52bY (antibody, human IgG1, kappa, L234A L235A, N297A, name in Kabat numbering)
heavy: B1 heavy with K54Y, K102H
chain: B1 chain
light: B1 light
notes: one-arm antibody
B16: CE115HA000 K52W (antibody, human IgG1, kappa, L234A L235A, N297A, name in Kabat numbering)
heavy: B1 heavy with K52W, K102H
chain: B1 chain
light: B1 light
notes: one-arm antibody
B17: CE115HA000 K52R (antibody, human IgG1, kappa, L234A L235A, N297A, name in Kabat numbering)
heavy: B1 heavy with K52R, K102H
chain: B1 chain
light: B1 light
notes: one-arm antibody
B18: CE115HA000 K43Q (antibody, human IgG1, kappa, L234A L235A, N297A, name in Kabat numbering)
heavy: B1 heavy with K43Q, K102H
chain: B1 chain
light: B1 light
notes: one-arm antibody
B19: CE115HA000 H96P (antibody, human IgG1, kappa, L234A L235A, N297A, name in Kabat numbering)
heavy: B1 heavy with K102P
chain: B1 chain
light: B1 light
notes: one-arm antibody
B20: CE115HA000 K52Y (antibody, human IgG1, kappa, L234A L235A, N297A, name in Kabat numbering)
heavy: B1 heavy with K52Y, K102H
chain: B1 chain
light: B1 light
notes: one-arm antibody
B21: CE115HA000 K52bS (antibody, human IgG1, kappa, L234A L235A, N297A, name in Kabat numbering)
heavy: B1 heavy with K54S, K102H
chain: B1 chain
light: B1 light
notes: one-arm antibody
B22: CE115HA000 K52F (antibody, human IgG1, kappa, L234A L235A, N297A, name in Kabat numbering)
heavy: B1 heavy with K52F, K102H
chain: B1 chain
light: B1 light
notes: one-arm antibody
B23: CE115HA000 K52bD (antibody, human IgG1, kappa, L234A L235A, N297A, name in Kabat numbering)
heavy: B1 heavy with K54D, K102H
chain: B1 chain
light: B1 light
notes: one-arm antibody
B24: CE115HA000 K52D (antibody, human IgG1, kappa, L234A L235A, N297A, name in Kabat numbering)
heavy: B1 heavy with K52D, K102H
chain: B1 chain
light: B1 light
notes: one-arm antibody
B25: CE115HA000 K52bQ (antibody, human IgG1, kappa, L234A L235A, N297A, name in Kabat numbering)
heavy: B1 heavy with K54Q, K102H
chain: B1 chain
light: B1 light
notes: one-arm antibody
B26: CE115HA000 K52S (antibody, human IgG1, kappa, L234A L235A, N297A, name in Kabat numbering)
heavy: B1 heavy with K52S, K102H
chain: B1 chain
light: B1 light
notes: one-arm antibody
B27: CE115HA000 K52bA (antibody, human IgG1, kappa, L234A L235A, N297A, name in Kabat numbering)
heavy: B1 heavy with K54A, K102H
chain: B1 chain
light: B1 light
notes: one-arm antibody
B28: CE115HA000 K52bL (antibody, human IgG1, kappa, L234A L235A, N297A, name in Kabat numbering)
heavy: B1 heavy with K54L, K102H
chain: B1 chain
light: B1 light
notes: one-arm antibody
B29: CE115HA000 H96L (antibody, human IgG1, kappa, L234A L235A, N297A, name in Kabat numbering)
heavy: B1 heavy with K102L
chain: B1 chain
light: B1 light
notes: one-arm antibody
B30: CE115HA000 H96Q (antibody, human IgG1, kappa, L234A L235A, N297A, name in Kabat numbering)
heavy: B1 heavy with K102Q
chain: B1 chain
light: B1 light
notes: one-arm antibody
B31: CE115HA000 I51D (antibody, human IgG1, kappa, L234A L235A, N297A, name in Kabat numbering)
heavy: B1 heavy with I51D, K102H
chain: B1 chain
light: B1 light
notes: one-arm antibody
B32: CE115HA000 K64A (antibody, human IgG1, kappa, L234A L235A, N297A, name in Kabat numbering)
heavy: B1 heavy with K67A, K102H
chain: B1 chain
light: B1 light
notes: one-arm antibody

The binders below were run against T1, CD3 epsilon homodimer protein (UniProt P07766 23-126) (assay: SPR, CD3 epsilon homodimer on chip, one-arm antibody as analyte;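 also: surface plasmon resonance at 25 °C with CD3 epsilon homodimer amine-coupled to a CM4 sensor chip, antibody injected as analyte, HBS-EP+ as running buffer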).
T1 construct: also called CD3 (CD3 epsilon)
T1 sequence (P07766 23-126): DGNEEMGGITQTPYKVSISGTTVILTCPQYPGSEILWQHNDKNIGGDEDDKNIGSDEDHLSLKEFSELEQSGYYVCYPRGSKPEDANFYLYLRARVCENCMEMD

Row | Binder | KD ratio (KD of CE115HA000/KD of altered form)
1 | B1 | 1.56
2 | B2 | 6.67
3 | B3 | 2.65
4 | B4 | 1.15
5 | B5 | 0.54
6 | B6 | 19.4
7 | B7 | 3.29
8 | B8 | 0.91
9 | B9 | 0.43
10 | B10 | 0.76
11 | B11 | 0.88
12 | B12 | 0.84
13 | B13 | 1.59
14 | B14 | 3.54
15 | B15 | 0.61
16 | B16 | 2.69

Row | Binder | KD ratio (KD of CE115HA000/KD of altered form)
17 | B17 | 0.8
18 | B18 | 0.89
19 | B19 | 87000
20 | B20 | 6.47
21 | B21 | 0.58
22 | B22 | 4.04
23 | B23 | 0.56
24 | B24 | 166
25 | B25 | 0.62
26 | B26 | 92.1
27 | B27 | 0.58
28 | B28 | 0.61
29 | B29 | 3.14
30 | B30 | 1.36
31 | B31 | 6.37
32 | B32 | 0.81
